We go through 6 molecules from US20210008201A1, “ANTIBODIES FOR EPIDERMAL GROWTH FACTOR RECEPTOR 3 (HER3)” (NOVARTIS AG, priority 2011, published 2021).

Test [1] deals with HER3 phosphorylation in MCF7 cells. The test can be described thus: Phospho-HER3 in vitro cell assay, neuregulin stimulated MCF7 cells. The test is classed as cell-based, human. Conditions: both ligand-dependent and ligand-independent manner; summary of cell signaling assays. The procedure:
MCF-7 cells were routinely maintained in DMEM/F12, 15 mM HEPES, L-glutamine, 10% FCS and SK-Br-3 in McCoy's 5a, 10% FCS, 1.5 mM L-glutamine. Sub-confluent MCF7 or SK-Br-3 cells grown in complete media were harvested with accutase (PAA Laboratories) and resuspended in the appropriate growth media at a final concentration of […]. 100 μL of cell suspension was then added to each well of a 96-well flat bottomed plate (Nunc) to give a final density of 5×10^4 cells/well. MCF7 cells were allowed to attach for approximately 3 hours before the media was exchanged for starvation media containing 0.5% FBS. All plates were then incubated overnight at 37° C. prior to treatment with the appropriate concentration of HER3 antibodies (diluted in the appropriate media) for 80 minutes at 37° C. MCF7 cells were treated with 50 ng/mL neuregulin 1-β1 EGF domain (R&D Systems) for the final 20 minutes to stimulate HER3 phosphorylation. All media was gently aspirated and the cells washed with ice-cold PBS containing 1 mM CaCl2) and 0.5 mM MgCl2 (Gibco). The cells were lysed by adding 50 μL ice-cold lysis buffer (20 mM Tris (pH8.0)/137 mM NaCl/10% Glycerol/2 mM EDTA/1% NP-40/1 mM sodium orthovanadate/, Aprotinin (10 μg/mL)/Leupeptin (10 μg/mL)) and incubated on ice with shaking for 30 minutes. Lysates were then collected and spun at 1800 g for 15 minutes at 4° C. to remove cell debris. 20 μL of lysate was added to a pre-prepared capture plate.
HER3 was captured from the lysate by incubating the plate at room temperature for one hour with shaking before the lysate was aspirated and the wells washed with 1× Tris buffer (Mesoscale Discovery)/0.1% Tween-20. Phosphorylated HER3 was detected using 0.75 μg/mL biotinylated anti-phosphotyrosine antibody (R&D Systems) prepared in 1% BSA/1× Tris/0.1% Tween-20 by incubating with shaking at room temperature for 1 hour. The wells were washed four times with 1× Tris/0.1% Tween-20 and biotinylated proteins were detected by incubating with S-Tag labelled Streptavidin (Mesoscale Discovery) diluted in 1% BSA/1× Tris/0.1% Tween-20 for one hour at room temperature. Each well was aspirated and washed four times with 1× Tris/0.1% Tween-20 before adding 20 μL of Read buffer T with surfactant (Mesoscale Discovery) and the signal quantified using a Mesoscale Sector Imager. Antibodies MOR06391 or MOR03207 were included in signalling experiments as isotype controls.

The subject of test [2] is BT-474 xenografts. The test can be described thus: In vivo BT-474 efficacy studies. Further details: species or system female athymic nu/nu Balb/C mice. The conditions noted are these: antibody 20 mg/kg in combination with sub-optimal trastuzumab 1 mg/kg. The procedure: BT-474 cells were cultured in DMEM containing 10% heat-inactivated fetal bovine serum without antibiotics until the time of implantation.
One day before cell inoculation, female athymic nu/nu Balb/C mice (Harlan Laboratories) were implanted subcutaneously with a sustained release 17β-estradiol pellet (Innovative Research of America) to maintain serum estrogen levels. One day after 17β-estradiol pellet implantation, 5×10^6 cells were injected orthotopically into the 4th mammary fatpad in a suspension containing 50% phenol red-free matrigel (BD Biosciences) in Hank's balanced salt solution. The total injection volume containing cells in suspension was 200 μL. 20 days following cell implantation animals with a tumor volume of approximately 200 mm^3 were enrolled in the efficacy study. In general, a total of 10 animals per group were enrolled in efficacy studies.
An initial loading dose of 40 mg/kg was given for the first dose. […] For the duration of the studies, tumor volume was measured by calipering twice per week. Percent treatment/control (T/C) values were calculated using the following formula: […]
Body weight was measured twice per week and dose was body weight adjusted. The % change in body weight was calculated as (BWcurrent−BWinitial)/(BWinitial)×100. […]
All data were expressed as mean standard error of the mean (SEM). […]

In test [3] the test system is BxPC3 tumors. The test can be described thus: In vivo BxPC3 efficacy studies. Further details: species or system female athymic nu/nu Balb/C mice. The conditions noted are these: BxPC3 tumor growth model. The procedure: BxPC3 cells were cultured in RPMI-1640 medium containing 10% heat-inactivated fetal bovine serum without antibiotics until the time of implantation.
Female athymic nu/nu Balb/C mice (Harlan Laboratories) were implanted subcutaneously with 10×10^6 cells in a mixture of 50% phosphate buffered saline with 50% matrigel. The total injection volume containing cells in suspension was 200 μL. Once tumors had reached approximately 200 mm^3 in size, animals were enrolled in the efficacy study. In general, a total of 10 animals per group were enrolled in studies.
Animals were dosed intravenously via lateral tail vein injection. An initial loading dose of 40 mg/kg was given for the first dose. After the initial dose, animals were on a 20 mg/kg, every other day schedule for the duration of the study (25 days under treatment). Tumor volume and T/C values were calculated as previously detailed.

B1: MOR09824: anti-HER3 human antibody, IgG1/kappa; VH SEQ ID NO: 33, VL SEQ ID NO: 32 (antibody, V domains shown)
VH: QVQLVESGGGLVQPGGSLRLSCAASGFTFSSYAMSWVRQAPGKGLEWVSVISAWGHVKYYADSVKGRFTISRDNSKNTLYLQMNSLRAEDTAVYYCARWGDEGFDIWGQGTLVTVSS
VL: DIQMTQSPSSLSASVGDRVTITCRASQGISNWLAWYQQKPGKAPKLLIYGASSLQSGVPSRFSGSGSGTDFTLTISSLQPEDFAVYYCQQYSSFPTTFGQGTKVEIK
Take B1: the “inhibition of cellular HER3 activity” value in test [1] is on record as “capable of inhibiting cellular HER3 activity”.

B2: MOR12610: anti-HER3 human antibody, IgG1/kappa; VH SEQ ID NO: 375, VL SEQ ID NO: 374 (antibody, V domains shown)
VH: QVQLVESGGGLVQPGGSLRLSCAASGFTFSSYAMSWVRQAPGKGLEWVSGTGPYGGTYYPDSVKGRFTISRDNSKNTLYLQMNSLRAEDTAVYYCARWGDEGFDIWGQGTLVTVSS
VL: DIQMTQSPSSLSASVGDRVTITCRASQGISNWLAWYQQKPGKAPKLLIYGASSLQSGVPSRFSGSGSGTDFTLTISSLQPEDFAVYYCQQYSSFPTTFGQGTKVEIK
Turning to B2, the “inhibition of cellular HER3 activity” value in test [1] is “capable of inhibiting cellular HER3 activity”.

B3: MOR10702: anti-HER3 human antibody, IgG1/kappa; VH SEQ ID NO: 123, VL SEQ ID NO: 122 (antibody, V domains shown)
VH: EVQLLESGGGLVQPGGSLRLSCAASGFTFSSYAMSWVRQAPGKGLEWVSVISAWGHVKYYADSVKGRFTISRDNSKNTLYLQMNSLRAEDTAVYYCARWGDEGFDIWGQGTLVTVSS
VL: DIQMTQSPSSLSASVGDRVTITCRASQGISNWLAWYQQKPGKAPKLLIYGASSLQSGVPSRFSGSGSGTDFTLTISSLQPEDFATYYCQQYSSFPTTFGQGTKVEIK
With B3, the “inhibition of cellular HER3 activity” value in test [1] is “capable of inhibiting cellular HER3 activity”.

B4: MOR09974: anti-HER3 human antibody, IgG1/kappa; VH SEQ ID NO: 69, VL SEQ ID NO: 68 (antibody, V domains shown)
VH: QVQLVESGGGLVQPGGSLRLSCAASGFTFSSYAMSWVRQAPGKGLEWVSVINPSGNFTNYADSVKGRFTISRDNSKNTLYLQMNSLRAEDTAVYYCARWGDEGFDIWGQGTLVTVSS
VL: DIQMTQSPSSLSASVGDRVTITCRASQGISNWLAWYQQKPGKAPKLLIYGASSLQSGVPSRFSGSGSGTDFTLTISSLQPEDFAVYYCQQYSSFPTTFGQGTKVEIK
Consider B4, for which, in test [1], the “inhibition of cellular HER3 activity” value was “capable of inhibiting cellular HER3 activity”.

B5: MOR10701: anti-HER3 human antibody, IgG1/kappa; VH SEQ ID NO: 105, VL SEQ ID NO: 104 (antibody, V domains shown)
VH: EVQLLESGGGLVQPGGSLRLSCAASGFTFSSYAMSWVRQAPGKGLEWVSVTGAVGRSTYYPDSVKGRFTISRDNSKNTLYLQMNSLRAEDTAVYYCARWGDEGFDIWGQGTLVTVSS
VL: DIQMTQSPSSLSASVGDRVTITCRASQGISNWLAWYQQKPGKAPKLLIYGASSLQSGVPSRFSGSGSGTDFTLTISSLQPEDFATYYCQQYSSFPTTFGQGTKVEIK
Take B5: the “% T/C” value in test [2] is on record as −50%. For the same molecule, in test [1], the “inhibition of cellular HER3 activity” value is listed as “capable of inhibiting cellular HER3 activity”. The “inhibition of ligand driven tumor growth” value in test [3] is “very effectively inhibited ligand driven tumor growth”.

B6: MOR12609: anti-HER3 human antibody, IgG1/kappa; VH SEQ ID NO: 357, VL SEQ ID NO: 356 (antibody, V domains shown)
VH: QVQLVESGGGLVQPGGSLRLSCAASGFTFSSYAMSWVRQAPGKGLEWVSVINGLGYTTFYADSVKGRFTISRDNSKNTLYLQMNSLRAEDTAVYYCARWGDEGFDIWGQGTLVTVSS
VL: DIQMTQSPSSLSASVGDRVTITCRASQGISNWLAWYQQKPGKAPKLLIYGASSLQSGVPSRFSGSGSGTDFTLTISSLQPEDFAVYYCQQYSSFPTTFGQGTKVEIK
In the case of B6, the “inhibition of cellular HER3 activity” value in test [1] was “capable of inhibiting cellular HER3 activity”.
